Measured values published in PMC3020921 (Molecular Biology of the Cell, 2011).
Blank lines part the entries; values can stand above or below the molecule they belong to.

Tests used:
[1] = molecular target: Flag-tagged Nemo-like kinase (NLK), wild type; assay: SEC
SEC = molecular target: the molecule itself; assay: SEC

- stoichiometry N [1]: 2
Molecule: Flag-tagged Nemo-like kinase (NLK), wild type (enzyme)

B1: endogenous NLK protein of PC12 cells (enzyme, rat (endogenous in PC12), UniProt D3ZSZ3 1-527, looked up)
chain: MSLCGTRANAKMMAAYNGGTSAAAAGHHHHHHHHLPHLPPPHLHHHHHPQHHLHPGSAAAVHPVQQHTSSAAAAAAAAAAAAAMLNPGQQQPYFPSPAPGQAPGPAAAAPAQVQAAAAATVKAHHHQHSHHPQQQLDIEPDRPIGYGAFGVVWSVTDPRDGKRVALKKMPNVFQNLVSCKRVFRELKMLCFFKHDNVLSALDILQPPHIDYFEEIYVVTELMQSDLHKIIVSPQPLSSDHVKVFLYQILRGLKYLHSAGILHRDIKPGNLLVNSNCVLKICDFGLARVEELDESRHMTQEVVTQYYRAPEILMGSRHYSNAIDIWSVGCIFAELLGRRILFQAQSPIQQLDLITDLLGTPSLEAMRTACEGAKAHILRGPHKQPSLPVLYTLSSQATHEAVHLLCRMLVFDPSKRISAKDALAHPYLDEGRLRYHTCMCKCCFSTSTGRVYTSDFEPVTNPKFDDTFEKNLSSVRQVKEIIHQFILEQQKGNRVPLCINPQSAAFKSFISSTVAQPSEMPPSPLVWE
- stoichiometry N (SEC): 2
